The values below come from paper PMC3836175 (Science (New York, N.Y.), 2013).

The test addresses T1, N-terminally truncated eIF5B (residues 396-1002) with the point mutation T439A (S. cerevisiae, UniProt P39730 396-1002, T439A).
T1 sequence (looked up): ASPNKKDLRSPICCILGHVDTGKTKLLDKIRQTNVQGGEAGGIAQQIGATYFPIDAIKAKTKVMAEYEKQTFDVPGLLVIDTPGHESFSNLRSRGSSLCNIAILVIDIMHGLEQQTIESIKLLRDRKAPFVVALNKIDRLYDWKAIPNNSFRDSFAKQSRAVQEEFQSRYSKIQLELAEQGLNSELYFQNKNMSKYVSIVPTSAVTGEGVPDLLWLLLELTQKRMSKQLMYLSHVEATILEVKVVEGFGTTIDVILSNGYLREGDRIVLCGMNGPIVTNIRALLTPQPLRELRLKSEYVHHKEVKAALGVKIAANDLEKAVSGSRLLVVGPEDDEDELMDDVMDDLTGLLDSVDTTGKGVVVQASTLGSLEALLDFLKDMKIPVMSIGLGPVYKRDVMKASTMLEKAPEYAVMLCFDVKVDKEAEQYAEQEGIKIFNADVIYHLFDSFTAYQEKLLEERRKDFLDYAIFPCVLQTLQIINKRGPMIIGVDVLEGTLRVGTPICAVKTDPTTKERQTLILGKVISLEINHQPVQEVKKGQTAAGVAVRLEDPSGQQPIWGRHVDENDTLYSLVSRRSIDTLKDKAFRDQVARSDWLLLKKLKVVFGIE
Kind of test: cryo-EM structure.

B1: ribosomal protein S23 (the yeast orthologue of bacterial protein S12) (natural protein, UniProt P0CX29 1-145, looked up)
chain: MGKGKPRGLNSARKLRVHRRNNRWAENNYKKRLLGTAFKSSPFGGSSHAKGIVLEKLGIESKQPNSAIRKCVRVQLIKNGKKVTAFVPNDGCLNFVDENDEVLLAGFGRKGKAKGDIPGVRFKVVKVSGVSLLALWKEKKEKPRS
Turning to B1, the binding result is on record as “binds”.
